In article doi:10.1101/2020.10.20.346890 (bioRxiv, 2020):
Where “and” joins values, the source holds several entries; their conditions need not be identical. Equal entries are not always repeated.

Columns and labels:
cross-linking = biological target: the molecule itself; assay: cross-linking
SEC = biological target: the molecule itself; assay: SEC

| Protein | stoichiometry N (cross-linking) | stoichiometry N (SEC) |
| --- | --- | --- |
| LoodHU-B (loop-deleted HU-B) (other) MNKSQLIDKIAAGADISKAAAGRALDAIIASVTESLKEGDDVALVGFGTFASGGGGSGGGGSKVPSFRAGKALKDAVN | 4 | 2 |
| LoodLysrHU-B (loop-deleted and lysine-replaced HU-B) (other) MNKSQLIDKIAAGADISKAAAGRALDAIIASVTESLKEGDDVALVGFGTFASGGGGSGGGGSKVPSFRAGAALADAVN | 2 and 4 | – |
| HU-B wild type (natural protein) MNKSQLIDKIAAGADISKAAAGRALDAIIASVTESLKEGDDVALVGFGTFAVKERAARTGRNPQTGKEITIAAAKVPSFRAGKALKDAVN | 4 and 3 and 6 | 2 |
| LysrHU-B (lysine-replaced HU-B) (other) MNKSQLIDKIAAGADISKAAAGRALDAIIASVTESLKEGDDVALVGFGTFAVKERAARTGRNPQTGKEITIAAAKVPSFRAGAALADAVN | 2 and 4 | – |
